Assay results from paper PMC12215968.

Molecular target: T1, nucleoside-disphosphate kinase B (NME2) (human (endogenous in HEK293)), P22392
T1 chain: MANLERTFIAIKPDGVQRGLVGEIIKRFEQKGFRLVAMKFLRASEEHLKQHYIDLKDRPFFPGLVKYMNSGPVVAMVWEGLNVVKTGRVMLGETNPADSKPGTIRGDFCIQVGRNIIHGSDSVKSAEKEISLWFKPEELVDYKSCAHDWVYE
Assay: cross-linking; in vivo: intact 293 HBTH-CSN2 cells, 1 mM TSTO in PBS pH 7.4, 1 h, room temperature; SEC-HpHt separation of peptides, LC-MSn
Details: remark: other sources report otherwise

stoichiometry N: 3
B1: nucleoside-disphosphate kinase B (NME2), P22392 1-152 (natural protein)
chain: T1 chain
